This assay addresses SLAMF7 (human) (UniProt Q9NQ25). As to the kind of experiment: cell-based or functional assay.

B1: elotuzumab (antibody, INN chains, looked up, V domains shown)
VH: EVQLVESGGGLVQPGGSLRLSCAASGFDFSRYWMSWVRQAPGKGLEWIGEINPDSSTINYAPSLKDKFIISRDNAKNSLYLQMNSLRAEDTAVYYCARPDGNYWYFDVWGQGTLVTVSS
VL: DIQMTQSPSSLSASVGDRVTITCKASQDVGIAVAWYQQKPGKVPKLLIYWASTRHTGVPDRFSGSGSGTDFTLTISSLQPEDVATYYCQQYSSYPYTFGQGTKVEIKR
Take B1: the g-NK cell-mediated cytotoxicity against elotuzumab-treated MM cell lines, correlation with SLAMF7 expression stood at 0.96 R^2.
